Source: article PMC4145800

How the values were obtained:
[1] = target: wild-type (polymerization-competent) yeast αβ-tubulin (yeast) (UniProt P09733); assay: AUC; sedimentation velocity; seven concentrations of TOG1 or TOG2 (44 nM-4.5 μM) titrated into 0.35 μM αβ-tubulin; 1:1 binding isotherm fitted; RB100 with 20 μM GTP, 20°C
[2] = target: wild-type (polymerization-competent) yeast αβ-tubulin (yeast) (UniProt P09733); assay: AUC; sedimentation velocity; TOG1-TOG2 or its mutants mixed with αβ-tubulin (∼5 molar equivalents of αβ-tubulin; seven concentrations of TOG1-TOG2 with 0.3 μM αβ-tubulin); two-site binding model; RB100 with 20 μM GTP, 20°C

For “TOG1 domain from Stu2p, TOG1(1-317) (from UniProt P46675 1-317) (domain or fragment)”, the Kd [1] was 0.07 µM and the stoichiometry N [1] was 1.
Substance “TOG1-TOG2 of Stu2p with the mutation R519A (from UniProt P46675 1-560) (domain or fragment)” has a stoichiometry N (αβ-tubulin per TOG1-TOG2) [2] of 1.
“TOG1-TOG2 of Stu2p with the mutation printed as W314A (from UniProt P46675 1-560) (domain or fragment)” gave a stoichiometry N (αβ-tubulin per TOG1-TOG2) [2] of 1.
In the case of “TOG1-TOG2(1-560) of Stu2p (from UniProt P46675 1-560) (domain or fragment)”, the stoichiometry N (αβ-tubulins per TOG1-TOG2) [2] is reported as 2.
